From publication PMC3904411 come the findings set out here.

One may read the stoichiometry N as the number of molecules, sites or subunits per partner or assembly. As a reminder, the Kd is the equilibrium constant for the complex coming apart. High values mean a looser complex, low ones a tighter complex. As usually defined, the koff is a measure of how fast the partners let go of each other. By kon is commonly meant the second-order rate constant of association. The low end stands for slow association, the high end for fast association.

Experiment [1] deals with PcrG (Pseudomonas aeruginosa strain 2192). The experiment can be described thus: SEC; HiLoad 16/60 Superdex 200 pg; 25 mM Tris–HCl pH 7.4, 150 mM NaCl; proteins 2–5 mg/ml; 1 ml/min; calibrated with markers.
Experiment [2] deals with ∆PcrG_((13–72)) (Pseudomonas aeruginosa strain 2192). As to the kind of experiment: SPR; BIACORE 3000, NTA sensor chip; […]; 10 mM hepes pH 7.4, 150 mM NaCl, 50 μM EDTA; 25°C; 5 μl/min; Langmuir binding model. On the technique in general: Surface plasmon resonance follows binding to a sensor surface in real time, without labels.
Experiment [3] deals with PcrG (Pseudomonas aeruginosa strain 2192). Described as above.
For experiment [4] the target is unchanged. As to the kind of experiment: dynamic light scattering; Malvern Zetasizer nano ZS; proteins 2–5 mg/ml, filtered 0.22 micron; ΔPcrV(128–294) alone and with equimolar PcrG.
Experiment [5] shares this target. The experiment can be described thus: cross-linking; EGS-sulfonate 0.5 mM, 1 mM and 2 mM, room temperature, 30 minutes; 10 mM hepes pH 7.4, 150 mM NaCl; 12% SDS PAGE.
Experiment [6] concerns the target ∆PcrG_((13–72)) (Pseudomonas aeruginosa strain 2192). The experiment can be described thus: native MS; called native mass spectrometry; protein diluted to 0.5-1.0 mg/ml in HPLC water, spotted on a MALDI target plate with CHCA matrix; Applied Biosystem 4700 Proteomics Analyser.

Take PcrG (natural protein): the stoichiometry N in experiment [1] is 2.
In experiment [2], “PcrV (from UniProt G3XD49 1-294) (natural protein)” had a Ka of 1.75e+06 M⁻¹, a Kd of 570 nM, a koff of 0.00978 s⁻¹ and a kon of 17100 M⁻¹ s⁻¹.
“ΔPcrV_((1–158)) (from UniProt G3XD49 1-158) (domain or fragment)” came in with a Kd in experiment [3] of 203 nM.
The same measure, in the same setting: under “ΔPcrV_((1–250)) (from UniProt G3XD49 1-250) (domain or fragment)” stands 179 nM; under “ΔPcrV_((128–250)) (from UniProt G3XD49 128-250) (domain or fragment)”, 247 nM.
On to “ΔPcrV_((128–294)) (from UniProt G3XD49 128-294) (domain or fragment)”, for which, in experiment [3], the Ka came out at 4.11e+07 M⁻¹, the Kd came to 24.3 nM, the koff was determined as 1.24e-05 s⁻¹ and the kon came to 511 M⁻¹ s⁻¹. Further, in experiment [2], the Ka was 1.61e+06 M⁻¹, the Kd stood at 621 nM, the dissociation rate constant (koff) came out at 1.69e-05 s⁻¹ and the kon came out at 27.2 M⁻¹ s⁻¹. The stoichiometry N in experiment [4] stood at 1. This substance also gave a stoichiometry N in experiment [5] of 1.
Take “ΔPcrV_((159–294)) (from UniProt G3XD49 159-294) (domain or fragment)”: the Kd in experiment [3] is 36.6 nM.
∆PcrG_((13–72)) (domain or fragment) displayed a stoichiometry N in experiment [6] of 2.
